Paper PMC8904551

How the values were obtained:
[1] = biological target: β2 adrenergic receptor, the receptor part of the β2AR-Spep SPASM sensor (UniProt P07550); experiment: FRET or BRET; steady-state ΔFRET of the β2AR-Spep SPASM sensor in native HEK293T membranes; 100 µM clenbuterol (partial agonist) against buffer, 5 min, 25 °C, FRET buffer; both partners on one chain
[2] = biological target: β2 adrenergic receptor, the receptor part of the β2AR-Spep SPASM sensor (UniProt P07550); experiment: FRET or BRET; steady-state ΔFRET of the β2AR-Spep SPASM sensor in native HEK293T membranes; 100 µM clenbuterol with 30 µM soluble Qpep (Gαq peptide), 5 min, 25 °C, FRET buffer; both partners on one chain
[3] = biological target: β2 adrenergic receptor, the receptor part of the β2AR-Spep SPASM sensor (UniProt P07550); experiment: FRET or BRET; steady-state ΔFRET of the β2AR-Spep SPASM sensor in native HEK293T membranes; 100 µM isoproterenol with 30 µM soluble Qpep (Gαq peptide), 5 min, 25 °C, FRET buffer; both partners on one chain
[4] = biological target: β2 adrenergic receptor, the receptor part of the β2AR-Spep SPASM sensor (UniProt P07550); experiment: FRET or BRET; stopped-flow decay of the FRET ratio (mCit/mCer) of the β2AR-Spep SPASM sensor in native HEK293T membranes, preincubated with 100 µM isoproterenol and quenched with 10 µM Nb6B9; FRET buffer; triple exponential fit with one decay constrained to the decay without Nb6B9; both partners on one chain
[5] = biological target: N-terminally biotinylated Gαs-peptide (bio-Spep); experiment: pull-down; affinity sequestration as above, with 10 µM Qpep (Gαq peptide) added to the 30 µM bio-Spep; 100 µM isoproterenol; streptavidin Dynabeads; FRET buffer + 0.1 mg/mL BSA
[6] = biological target: N-terminally biotinylated Gαs-peptide (bio-Spep); experiment: pull-down; affinity sequestration: β2AR-mCer native membranes with 100 µM isoproterenol and 30 µM bio-Spep, 5 min at room temperature, then streptavidin Dynabeads for 5 min; fraction bound = 1 - fraction of mCerulean counts in the supernatant; FRET buffer + 0.1 mg/mL BSA

fold weaker interaction (ΔFRET) with clenbuterol than with isoproterenol [1] [fold] | fold increase of the interaction (ΔFRET) with Qpep against without, clenbuterol [2] [fold] | fold increase of the interaction (ΔFRET) with Qpep against without, isoproterenol [3] [fold] | koff, strong interaction state (slow decay) [4] [s⁻¹] | koff, weak interaction state (fast decay) [4] [s⁻¹] | fraction of receptor bound, with 10 µM Qpep [5] [%] | fraction of receptor bound [6] [%] | Substance
6 | 5 | 2 | 0.006 | 0.3 | – | – | Gαs-peptide (Spep), the 27 amino acid Gα C-terminal peptide of the β2AR-Spep SPASM sensor
– | – | – | – | – | 17 | 5 | β2AR-mCerulean (from UniProt P07550 1-413) (receptor)
